Molecular target: SARS-CoV-2 Spike receptor binding domain (RBD) (SARS-CoV-2, ancestral (Wuhan-Hu-1) …, UniProt P0DTC2)
Assay: SPR
Conditions: both partners purified

B1: nanobody Nb6 (class I synthetic nanobody) (VHH)
VHH: QVQLVESGGGLVQAGGSLRLSCAASGIIFGRNAMGWYRQAPGKERELVAGITRRGSITYYADSVKGRFTISRDNAKNTVYLQMNSLKPEDTAVYYCAADPASPAPGDYWGQGTQVTVSS
Kd: 41 nM

Source: publication PMC7857409 (Science (New York, N.y.), 2020)
